T1: BTV-8 VP7 (SEQ ID NO:6) (Bluetongue virus serotype 8, UniProt P69361 1-349)
T1 sequence: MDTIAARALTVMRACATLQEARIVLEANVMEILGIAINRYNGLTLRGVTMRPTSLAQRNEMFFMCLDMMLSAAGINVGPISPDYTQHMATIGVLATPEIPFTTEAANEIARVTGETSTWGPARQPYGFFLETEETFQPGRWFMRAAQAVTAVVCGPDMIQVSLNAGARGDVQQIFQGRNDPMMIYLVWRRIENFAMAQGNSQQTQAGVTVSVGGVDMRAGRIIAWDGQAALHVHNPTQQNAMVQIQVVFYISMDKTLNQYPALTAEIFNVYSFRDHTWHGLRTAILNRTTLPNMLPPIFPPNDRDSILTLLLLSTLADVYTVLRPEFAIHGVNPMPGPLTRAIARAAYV

T2: BTV-8 VP3 (SEQ ID NO:1) (Bluetongue virus serotype 8, UniProt P12435 1-901)
T2 sequence: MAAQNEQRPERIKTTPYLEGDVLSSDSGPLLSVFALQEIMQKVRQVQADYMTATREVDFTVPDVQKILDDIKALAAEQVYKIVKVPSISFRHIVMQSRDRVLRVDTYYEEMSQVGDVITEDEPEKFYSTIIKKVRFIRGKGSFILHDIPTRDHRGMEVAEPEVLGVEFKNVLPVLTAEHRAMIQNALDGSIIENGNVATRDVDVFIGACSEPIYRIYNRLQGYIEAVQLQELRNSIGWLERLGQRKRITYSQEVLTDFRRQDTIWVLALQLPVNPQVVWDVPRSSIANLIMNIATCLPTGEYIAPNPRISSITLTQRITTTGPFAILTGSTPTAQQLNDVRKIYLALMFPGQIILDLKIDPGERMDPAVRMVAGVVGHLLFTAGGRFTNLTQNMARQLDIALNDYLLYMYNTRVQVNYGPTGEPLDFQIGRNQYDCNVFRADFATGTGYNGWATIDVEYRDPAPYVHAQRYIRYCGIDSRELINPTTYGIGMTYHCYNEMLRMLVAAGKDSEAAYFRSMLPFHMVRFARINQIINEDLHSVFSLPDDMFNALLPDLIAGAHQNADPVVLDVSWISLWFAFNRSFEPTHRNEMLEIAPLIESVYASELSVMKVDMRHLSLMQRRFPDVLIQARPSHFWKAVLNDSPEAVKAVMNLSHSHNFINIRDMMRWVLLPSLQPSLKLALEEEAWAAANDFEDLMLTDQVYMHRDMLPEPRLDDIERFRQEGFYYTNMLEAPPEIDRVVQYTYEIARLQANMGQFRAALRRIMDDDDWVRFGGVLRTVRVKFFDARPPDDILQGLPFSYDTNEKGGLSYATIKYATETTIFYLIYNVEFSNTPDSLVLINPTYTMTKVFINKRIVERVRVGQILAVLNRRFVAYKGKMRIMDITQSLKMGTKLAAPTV


Key:
BTV-8 VP7 (SEQ ID NO:6) = molecular target: T1, BTV-8 VP7 (SEQ ID NO:6); experiment: CLP assembly on co-expression; sucrose gradient, TEM (FIG. 13)
BTV-8 VP3 (SEQ ID NO:1) = molecular target: T2, BTV-8 VP3 (SEQ ID NO:1); experiment: particle assembly on co-expression in N. benthamiana; iodixanol gradient, TEM

| Binder | binding result (BTV-8 VP7 (SEQ ID NO:6)) | binding result (BTV-8 VP3 (SEQ ID NO:1)) |
| --- | --- | --- |
| BTV-8 VP3 (SEQ ID NO:2) (other) MAAQNEQRPERIKTTPYLEGDVLSSDSGPLLSVFALQEIMQKVRQVQADYMTATREVDFTVPDVQKILDDIKALAAEQVYKIVKVPSISFRHIVMQSRDRVLRVDTYYEEMSQVGDVITEDEPEKFYSTIIKKVRFIRGKGSFILHDIPTRDHRGMEVAEPEVLGVEFKNVLPVLTAEHRAMIQNALDGSIIENGNVATRDVDVFIGACSEPIYRIYNRLQGYIEAVQLQELRNSIGWLERLGQRKRITYSQEVLTDFRRQDTIWVLALQLPVNPQVVWDVPRSSIANLIMNIATCLPTGEYIAPNPRISSITLTQRITTTGPFAILTGSTPTAQQLNDVRKIYLALMFPGQIILDLKIDPGERMDPAVRMVAGVVGHLLFTAGGRFTNLTQNMARQLDIALNDYLLYMYNTRVQVNYGPTGEPLDFQIGRNQYDCNVFRADFATGTGYNGWATIDVEYRDPAPYVHAQRYIRYCGIDSRELINPTTYGIGMTYHCYNEMLRMLVAAGKDSEAAYFRSMLPFHMVRFARINQIINEDLHSVFSLPDDVFNALLPDLIAGAHQNADPVVLDVSWISLWFAFNRSFEPTHRNEMLEIAPLIESVYASELSVMKVDMRHLSLMQRRFPDVLIQARPSHFWKAVLNDSPEAVKAVMNLSHSHNFINIRDMMRWVLLPSLQPSLKLALEEEAWAAANDFEDLMLTDQVYMHRDMLPEPRLDDIERFRQEGFYYTNMLEAPPEIDRVVQYTYEIARLQANMGQFRAALRRIMDDDDWVRFGGVLRTVRVKFFDARPPDDILQGLPFSYDTNEKGGLSYATIKYATETTIFYLIYNVEFSNTPDSLVLINPTYTMTKVFINKRIVERVRVGQILAVLNRRFVAYKGKMRIMDITQSLKMGTKLAAPTV | binds | – |
| BTV-8 VP7 (SEQ ID NO:5) (other) MDTIAARALTVMRACATLQEARIVLEANVMEILGIAINRYNGLTLRGVTMRPTSLAQRNEMFFMCLDMMLSAAGINVGPISPDYTQHMATIGVLATPEIPFTTEAANEIARVTGETSTWGPARQPYGFFLETEETFQPGRWFMRAAQAVTAVVCGPDMIQVSLNAGARGDVQQIFQGRNDPMMIYLVWRRIENFAMAQGNSQQTQAGVTVSVGGVDMRAGRIIAWDGQAALHVHNPTQQNAMVQIQVVFYISMDKTLNQYPALTAEIFNVYSFRDHTWHGLRTAILNRTTLPNMLPPIFPPNDRDSILTLLLLSTLADVYTVLRPEFAIHGVNPMPGPLTRAIARAAYV | – | binds |
